In the experiment the target is Presenilin 1 (mouse (endogenous in primary neurons of …, UniProt P49769 1-467)). Put plainly: co-IP.

B1: Synaptotagmin 1 (natural protein)
chain: MVSASRPEALAAPVTTVATLVPHNATEPASPGEGKEDAFSKLKQKFMNELHKIPLPPWALIAIAIVAVLLVVTCCFCVCKKCLFKKKNKKKGKEKGGKNAINMKDVKDLGKTMKDQALKDDDAETGLTDGEEKEEPKEEEKLGKLQYSLDYDFQNNQLLVGIIQAAELPALDMGGTSDPYVKVFLLPDKKKKFETKVHRKTLNPVFNEQFTFKVPYSELGGKTLVMAVYDFDRFSKHDIIGEFKVPMNTVDFGHVTEEWRDLQSAEKEEQEKLGDICFSLRYVPTAGKLTVVILEAKNLKKMDVGGLSDPYVKIHLMQNGKRLKKKKTTIKKNTLNPYYNESFSFEVPFEQIQKVQVVVTVLDYDKIGKNDAIGKVFVGYNSTGAELRHWSDMLANPRRPIAQWHTLQVEEEVDAMLAVKK
For the molecule B1, the “fold change of co-precipitated Syt-1/PS1, old against young neurons (-KCl)” value came out at 1.79 fold.

Source of the values: PMC7325863 (Neurobiology of aging, 2019).
